Assay results: the DeepSol protein solubility set

Assay: soluble on expression in E. coli; label from the status in PepcDB or PDB records

Sequence	soluble on expression in E. coli
MSSEEDKSVEQPQPPPPPPEEPGAPAPSPAAADKRPRGRPRKDGASPFQRARKKPRSRGKTAVEDEDSMDGLETTETETIVETAEIKEQSAEEDAEAEVDNSKQLIPTLQRSVSEESANSLVSVGVEAKISEQLCAFCYCGEKSSLGQGDLKQFRITPGFILPWRNQPSNKKDIDDNSNGTYEKMQNSAPRKQRGQRKERSPQQNIVSCVSVSTQTASDDQAGKLWDELSLVGLPDAIDIQALFDSTGTCWAHHRCVEWSLGVCQMEEPLLVNVDKAVVSGSTERCAFCKHLGATIKCCEEKCTQMYHYPCAAGAGTFQDFSHIFLLCPEHIDQAPERSKEDANCAVCDSPGDLLDQFFCTTCGQHYHGMCLDIAVTPLKRAGWQCPECKVCQNCKQSGEDSKMLVCDTCDKGYHTFCLQPVMKSVPTNGWKCKNCRICIECGTRSSSQWHHNCLICDNCYQQQDNLCPFCGKCYHPELQKDMLHCNMCKR	not soluble
MSLSKEVVYVPTGSIAKERSIFFDLKHMDKLTDLVNSGSFSADSKIKSEASGNIRMDVILSADNKFAAVQLFQFVPYTYQPVTAVHYFTNDAAAAVAAFLTKSQLNEGHHHHHH	soluble
GPGSMLASTPGSNFGGAVASSNNNGGQQPQRRMHPIRPLTIKQMLEAQSVGGGVLVVDGREVTQATVVGRVVGYENANMASGGGAITAKHFGYRITDNTGMLVVRQWIDADRMQEPLAINTHVRASGTVNVWQQTPIVTGTVVSMADSNEMNYHMLDAILTHFRLTQGNKRAPSSGVSIQNTASAVGMHNMLPGGDNKVLLTDLLVSFIKQHGSSGAGMSMDELTTSAQRYGFTHGDVRTAMRTLAAEGKVYQTHDNRFNI	soluble
MSLTSWNATIDPDNTIRFKEPDVLFDSGKSQVKERFKVVLDDFFPRYVKILSQEKYKGDIEEIRIEGHTSSEWLNAKTLEERYLGNAALSQARAFEVLKYCFALERIKGEQDWLIKVLRANGLSFAKPLDSEEHSRRVEFRTLTRSHQKMLKILDLSKEGHHHHHH	not soluble
MENFAEIVGIGPAGVISITGGGGKTSLMFHLARQLAYSGKRVLTTTTTKILAPSVEESRTLLISQDPQVILRHAKAHPGPGVHVSAAAGHIPHTEKLQGFPREAIRTFEDSGEFDWVVVEADGAARKPLKAPAAHEPVIPGNSTIVVALAGLEVLGRPLGEEMVFRSELAGELMQIPQGETITVPALARLLAHPSGGFKGAPPQARRFIFLNKADTPELQEKGGEVALQLKEIAPSVAEAVIVGQLRQEITLHRVYPRGELEHHHHHH	soluble
SLHIDVNNALNRAELVHSALFHEVDAIDSFCADWAEWDDTYNFVLNRNMDYVESNLVDETFPTLNVNYIVYLDRNGEVVLAKGYDLENETAMNPSQPLIERFRELSARNDLDVKKGFLRFDNSIYAFSARPILRSDETGPYAGTLIFARIVDDSFIQSPSKIAGLSFKILPVPKEKSVKFVNESALLVEFPLEDYSGRVVGTIEFYAEREALG	soluble
MRGSHHHHHHTDPALRAAFRMSEQPRTIKIYNLLAGTNEFIGEGDAYIPPHTGLPANSTDIAPPDIPAGFVAVFNSDESSWHLVEDHRGKTVYDVASGNALFISELGPLPENVTWLSPEGEFQKWNGTAWVKDTEAEKLFRIREAEETKNNLMQVASEHIAPLQDAADLEIATEEEISLLEAWKKYRVLLNRVDTSTAQDIEWPALPGLCGR	soluble
MNKLLTSKSEIIERKIRYDSTTVEHTCLLLEKQLRSIVLFHEVQYSFTMNTHDSSLTIPKGSYTIAYYWEDRPYNLYIWRDKDGMYVGSYFNVVKNTQITDELVSFEDLIIDILVLPSGEYFILDEDELPESLEEFEDGYVNEALHVLEEIIQKTLPQMIVETERVRLN	not soluble
